Residue numbers refer to the chain shown, from its start.
What was measured:
[1] = molecular target: T1, human NADK (cNADK, full-length) (Homo sapiens, UniProt O95544, C349S); assay: isothermal titration calorimetry; format: binding
T1 construct: full-length, modified pET28a, His tag cleaved by TEV, E. coli BL21, HisTrap / Resource Q / Superdex 200, tetramer
T1 sequence (O95544 1-446 C349S): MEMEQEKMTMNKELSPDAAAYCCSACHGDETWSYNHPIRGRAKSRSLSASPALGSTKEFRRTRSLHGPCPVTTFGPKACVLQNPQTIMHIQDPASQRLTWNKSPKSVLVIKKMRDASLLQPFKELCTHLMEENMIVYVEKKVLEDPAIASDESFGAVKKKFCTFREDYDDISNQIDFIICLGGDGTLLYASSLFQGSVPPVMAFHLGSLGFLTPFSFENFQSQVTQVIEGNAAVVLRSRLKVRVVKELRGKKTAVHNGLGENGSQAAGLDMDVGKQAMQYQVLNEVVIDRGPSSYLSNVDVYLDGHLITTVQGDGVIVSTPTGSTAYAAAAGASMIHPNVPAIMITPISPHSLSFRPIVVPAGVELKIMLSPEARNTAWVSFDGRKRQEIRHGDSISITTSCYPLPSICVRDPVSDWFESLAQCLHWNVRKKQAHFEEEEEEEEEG

[2] = molecular target: the molecule itself; assay: SEC; lysates of transfected HEK293T cells with endogenous NADK knocked out, Superdex 200 Increase 10/300 GL, 0.5 mL/min; fractions analysed by immunoblotting
[3] = molecular target: the molecule itself; assay: cryo-EM structure; single-particle cryo-EM of the purified, substrate-free NADK tetramer (10 mg/mL); 2.54 Å

NC(=O)c1ccc[n+]([C@@H]2O[C@H](COP(=O)([O-])OP(=O)(O)OC[C@H]3O[C@@H](n4cnc5c(N)ncnc54)[C@H](O)[C@@H]3O)[C@@H](O)[C@H]2O)c1 [NAD^+]
Kd [1]: 86.9 µM

B1: N-terminal truncated NADK (95-446) (domain or fragment, human, UniProt O95544 95-446, looked up)
chain: SQRLTWNKSPKSVLVIKKMRDASLLQPFKELCTHLMEENMIVYVEKKVLEDPAIASDESFGAVKKKFCTFREDYDDISNQIDFIICLGGDGTLLYASSLFQGSVPPVMAFHLGSLGFLTPFSFENFQSQVTQVIEGNAAVVLRSRLKVRVVKELRGKKTAVHNGLGENGSQAAGLDMDVGKQAMQYQVLNEVVIDRGPSSYLSNVDVYLDGHLITTVQGDGVIVSTPTGSTAYAAAAGASMIHPNVPAIMITPICPHSLSFRPIVVPAGVELKIMLSPEARNTAWVSFDGRKRQEIRHGDSISITTSCYPLPSICVRDPVSDWFESLAQCLHWNVRKKQAHFEEEEEEEEEG
notes: also called ΔN95; N-terminal truncation mutant; source: HEK293T with endogenous NADK knocked out, transfected, in lysate
stoichiometry N [2]: 4

B2: full-length human NADK (NAD+ kinase), purified tetramer (enzyme, UniProt O95544 1-446, looked up)
chain: T1 sequence (O95544 1-446 C349S) with S349C
notes: Cloned in a modified pET28a vector; the tetramer peak of the Superdex 200 column was collected for cryo-EM; In the map the protomers are visible only from residues 98, 95, 96 and 98; also called cNADK; cytoplasmic NADK; source: E. coli BL21, purified (HisTrap FF, TEV cleavage, Resource Q, Superdex 200 Increase)
stoichiometry N [3]: 4

From PMC12052686, “NADK tetramer defective mutants affect lung cancer response to chemotherapy via controlling NADK activity” (Genes & Diseases, 2025)
